From patent US20230399417A1 (Genentech, published 2023)
No end group written: not given here.

T1: mouse IL-1β peptide 21LFFEVD26 (mouse)
T1 construct: Liberated C-terminus of the noncanonical cleavage site, with free C-terminal Asp
T1 peptide: LFFEVD-OH

T2: IL-18 peptide 30GDLESD35
T2 construct: Liberated C-terminus of IL-18, with free C-terminal Asp
T2 peptide: GDLESD

B1: CJ11 Fab (Fab, V domains shown)
VH: QSVEESGGGLVTPGTPLTLTCTVSGIDLSRYAMSWVRQAPGKGLEWIGIFGSLGGIFYASWAKGRFTISKTSPTTVDLKITSPTTEDTATYFCARMPYTTDRDFWGPGTLVTVSS
VL: DIVMTQTPSSTSAAVGGTVTITCQASQSVANNNYLKWYQQKRGQPPKQLIYSVSTLASGVPSRFKGSGSGTQFTLTISDLECDDAATYYCSGYFNNNIGAFGGGTKLEIK
notes: also called its Fab
B2: CJ11 Fab modified by reductive lysine methylation (Fab, V domains shown)
VH: B1 VH
VL: B1 VL
modifications: lysines modified by reductive methylation

Legend:
[1] = target: T1, mouse IL-1β peptide 21LFFEVD26; assay: X-ray co-crystal structure
IL-18 peptide 30GDLESD35 = target: T2, IL-18 peptide 30GDLESD35; assay: X-ray co-crystal structure

Binder | binding result [1] | binding result (IL-18 peptide 30GDLESD35)
B1 | binds | –
B2 | – | binds
